This note sets out measurements from the DeepSol protein solubility set.

The data set in a line: soluble on expression in E. coli; label from the status in PepcDB or PDB records.
As to “MLFISSDNQKEKRGMAGNKKINRREEILQALAEMLESNEGASRITTAKLAKQVGVSEAALYRHFPSKARMFEGLIEFIEESLMSRINRIFDEEKDTLNRIRLVMQLLLAFAERNPGLTRILSGHALMFENERLRDRINQLFERIETSLRQILRERKLREGKSFPVDENILAAQLLGQVEGSLNRFVRSDFKYLPTANFDEYWALLSAQIK”, the “soluble on expression in E. coli” value is “soluble”.
The entry for “MWNFTLISKVKISREVTMIASKFGIGQQVRHSLLGYLGVVVDIDPVYSLSEPSPDELAVNDELRAAPWYHVVMEDDNGLPVHTYLAEAQLSSELQDEHPEQPSMDELAQTIRKQLQAPRLRNLEHHHHHH” is “not soluble”; for “GPGSMTDDSSGLQSELSHALEGEGNLSVDAMLSQSLVKADLQTPSARILLKKIERPPGRFDLLTNSLVYSWQTTAAQARKVTGPMREWASELKYRTGVHLEVEPTNPTRLGVPEEEGGYAAADDVELTVYLFGSERGIFNCRQLMETALDQNPAYVRLAVFRRRPGKGVSTSTAAVPRPQEDVEWLLLRRINRDLRPPDIPPISLKTPGKWTLLYEQYKEAAIRTLWEETGITVEAGNVYPTAVLCQDNPIYYWRVPVHYFLAEVPYDVQVLGPQVGLNTYMHHWDSSLLRQSPDPIDRAWAQLADPETGCAWMKQPMIDELQRPLRGENYMATRYTPPPYSQLNHALGLAVPAEAAGEASAADSALSAATTAEGGEAQDDVKEDDAAAPSADADASSSNDKPSS” it is “soluble”; for “MEVEYMNFNELNLSDNILNAIRNKGFEKPTDIQMKVIPLFLNDEYNIVAQARTGSGKTASFAIPLIELVNENNGIEAIILTPTRELAIQVADEIESLKGNKNLKIAKIYGGKAIYPQIKALKNANIVVGTPGRILDHINRGTLNLKNVKYFILDEADEMLNMGFIKDVEKILNACNKDKRILLFSATMPREILNLAKKYMGDYSFIKAKINANIEQSYVEVNENERFEALCRLLKNKEFYGLVFCKTKRDTKELASMLRDIGFKAGAIHGDLSQSQREKVIRLFKQKKIRILIATDVMSRGIDVNDLNCVINYHLPQNPESYMHRIGRTGRAGKKGKAISIINRREYKKLRYIERAMKLKIKKLKFG” it is “soluble”.
On to “AHHHHHHGSGRFVVWPSELDSRLSRKYGRIVPRSIAVESPRVEEIVRAAEELKFKVIRVEEDKLNPRLSGIDEELRTFGMIVLESPYGKSKSLKLIAQKIREFRRRSA”, for which the “soluble on expression in E. coli” value is reported as “not soluble”.
The result for “MKKFCLSYSSGKDCLLAMDRLVQAGNQPVALVTTLSDEINRSWFHGIPISVLEAAAEALDLPLVISHNNETNYTEKVVEALQETKKLGAETVCFGDIDIEQNGAWDRQVALSAGLEPQLPLWQENREALVKEFLAKGYTAIIKTVSKEAGIPIKFLGEPLNETFITYLKEHQLDICGENGEYHTLVIDGPLFKKRLNYYTSGIYESPYAYSLIIDALEHHHHHH” reads “soluble”; that for “AIAASSDVLRQPDKNARPLALSGHVGFDSLPDQLVNKSTSQGFCFNILCIGETGIGKSTLMDTLFNTNFENFESSHFEPKVKLRAQTYDLQESNVRLKLTVVNTVGFGDQMNKQESYQHIVDYIDTQFESYLQEELKIKRSLHNYHDSRIHACLYFIAPSGHSLKSLDLVTMKKLDSKVNIIPVIAKADTISKSELHKFKIKIMSELVSNGVQIYQFPIDDETVAKINTAMNGHLPFAVVGSTEEVNIGNKMVKARQYPWGVVQVENENHCDFVKLREMLICVNMEDLREQTHTRHYELYRRCKLEEMGFKDTDPECKPVSLQQTYEAKRQEFLGELQRREEEMRQTFVQRVKEKEAELKDAERELQGKFEQLKRLHADEKSKLEEKRRSLEEEMSVFSKRKAATELLQAQSFNTSTNNKKDKDRKNSGFM”, “soluble”; that for “MRTATSTSPATGTPAPVPSRTPDVTVTVIVYNDAGRLPRAVASALRQSHANIEVVISDDHSTDATEEVARELAAHDPRVVYLRLPENSGGCSAPRNRALEIARAPYLMFLDSDDELPERAVEVLLAAHRERDLDFAMGAVHRIREDGGRRTTWMPHLVAERRTLDGIEADPRLLFEHLSTSKMYARAFLDRHGLRFPEGIHYEDQLFSAQAYCLAKTFTVVPEPVYRWYIAPYADADSASISNQRHKLTNVRDRVHVQRLIDAFLAESGHEALREDKDFKFLKHDFRMYAGDLPYRDDTWLASFADLMNPYLDTLAEGAYARLPRAERVVLRLLRDRRLSDVRTAARGLGHDVAPRRVTPDEQSGRVYWGEEVPASPESRRELDLTDLDLDTRPFFTALLRHEITEITRGPGASVDLTVRTYDPALRLPVGPQRAVLHLSPGPRRLTVPFRLSPVRPGLFEGRVRLDLAAARLPLHGFAGTRHPVLRLRHRGRTHTGILLAPLAFPPLTARVPYRTGLTPHRVTLRPEGHNPGRLQITWQPVGTTAKILGPAARRLSTPRTRRAARLLSNILRLEHHHHHH”, “soluble”.
On to “GMSPTVLPATQADFPKIVDVLVEAFANDPTFLRWIPQPDPGSAKLRALFELQIEKQYAVAGNIDVARDSEGEIVGVALWDRPDGNHSAKDQAAMLPRLVSIFGIKAAQVAWTDLSSARFHPKFPHWYLYTVATSSSARGTGVGSALLNHGIARAGDEAIYLEATSTRAAQLYNRLGFVPLGYIPSDDDGTPELAMWKPPAMPTV”, for which the “soluble on expression in E. coli” value is “soluble”.
On to “MGSDKIHHHHHHMRGSAVARDLTDDKAMVHGALSMLARGGAVDQAYAPDAVAEIAHPYGTCTGADITRFYGDLHRALPDANWRPEIFFAGHNHPDERMEGPRVAAQVGSFGHWQGTFTQPLLGIEPTGGVVHLRMCEVHHLNAAGQIAQSWILPDFLDLMDQAGQFPLPPMNGARGLWPGPRGGNGVRMGPPDVAGGNASMAQVLDMHNALNTHVGADVSGLTMAHWDPNFMYYAAAGIGICRGVEGFRRNHQIPFREAVPDRYSKGHFVRIADGRFALTGGRLYATHTGTYLGIPATGRQVHIDVMDFYHFHDQGLICQNWLPFDILKTAHQMGVDLLPALPS”, for which the “soluble on expression in E. coli” value is on record as “not soluble”.
With “GSPEFMALTQSLKLSNGVMMPVLGFGMWKLQDGNEAETATMWAIKSGYRHIDTAAIYKNEESAGRAIASCGVPREELFVTTKLWNSDQGYESTLSAFEKSIKKLGLEYVDLYLIHWPGKDKFIDTWKAFEKLYADKKVRAIGVSNFHEHHIEELLKHCKVAPMVNQIELHPLLNQKALCEYCKSKNIAVTAWSPLGQGHLVEDARLKAIGGKYGKTAAQVMLRWEIQAGVITIPKSGNEARIKENGNIFDFELTAEDIQVIDGMNAGHRYGPDPEVFMNDF”, the “soluble on expression in E. coli” value was “soluble”.
On to “MVELVISPSLTVNSDCLDKLKFNRADAAVWTLSDRQGITKSAPLRVSQLFSRSCPRVLPRQPSTAMAAYGQTQYSAGIQQATPYTAYPPPAQAYGIPSFSTSPTGQSPYTYQMHGTTGFYQGGNGLGNAAGFGSVHQDYPSYPGFPQSQYPQYYGSSYNPPYVPASSICPSPLSTSTYVLQEASHNVPNQSSESLAGEYNTHNGPSTPAKEGDTDRPHRASDGKLRGRSKRSSDPSPAGDNEIERVFVWDLDETIIIFHSLLTGTFASRYGKDTTTSVRIGLMMEEMIFNLADTHLFFNDLEDCDQIHVDDVSSDDNGQDLSTYNFSADGFHSSAPGANLCLGSGVHGGVDWMRKLAFRYRRVKEMYNTYKNNVGGLIGTPKRETWLQLRAELEALTDLWLTHSLKALNLINSRPNCVNVLVTTTQLIPALAKVLLYGLGSVFPIENIYSATKTGKESCFERIMQRFGRKAVYVVIGDGVEEEQGAKKHNMPFWRISCHADLEALRHALELEYL”, for which the “soluble on expression in E. coli” value is “not soluble”.
Take “MDRDWGGKTGGGGVASSEQTEVSRRERLRQLALETIDLKKDPYFMRNHLGGYECKLCLTLHTNEGNYLAHTQGRRHQMNLARRAAREAKEKPQTVAPPPKIVPKKTIKIGRPGYRIIKQRDPETDQLSLLFQIQYPEIAEDVQPRHRFMSSFEQKVERPDPKYQFLLFAAEPYETIAFKIPNWEIEKSEGNYYLHWDKDNKTFTLQIYFKPRSQPPVKNQQEIPSQQASVGNLMKQQRDPFAPIAFGT”: the “soluble on expression in E. coli” value is given as “soluble”.
The entry for “MGSDKIHHHHHHMENVVPPFKVDVAGTFLLPAALREAREQYRNEQISLLTLRAVEDAEIRNLVDRLKAEGLKVVTDGRFRSDAWPLDFMCGLDGIRFRDDRKTSVELTGRIDVHHHPVLDDFVFLTGVTGGDVIAKQVLPAPSRLLAELMKDANRTELDSVYPDREILLVDLAQTYQKLIMELYRSGCRYLQLDDATRTVTDNAIRVNNMALENLPADLFIAFHSPTEMLFSLQGIHAFFLDYDSECCGKNRLLWFIREKQSVFGFVLSHYPVEEELEELRAKIDQIIRYIPSHRFSLCIPNAEVLPSESYEAAEEKQWHTLKMAEMVAGELWPEEG” is “not soluble”; for “GGALGGSIAFETVDAQDLLEGNQKLGMMLRSGYASASDGYLGGTSVYGLLSDHLGILVDVSGQNEDDYRGGSGEDALYTATKDRNYFAKLSLLDLEGHTLKVGATHNKSSGHYVSGSTGSDMGAPSASQKADFQVLKRDTYTLDHRYNPENPYVDIQTKIYRNERHLENRTSLLDVTSQTTGGSLKNVMTLDSGIFQHRFTLGGDYEQEKGIVENSLYENEAKTTGLFLQGLTRVEALKLHYGLRWDDYKSDFGPKTLSGDELSPNFGAEYELLSGLALFSNYSESVRAGGIIPLQWMAGITQSANFNNGEAFKPEISKQKEGGIKYSTRGVFADNDRMKLSATLFKTTIENLIDYTRSGGPSGKITKIFNQEEDLISKGYELKASWEKEAWATSLGFIHVEMEEGGEPVVVSRRKAASMGDRFVWDVSYQMTPELLLGYTLHAVDKLDDVPALYRRAGYVTHDLELQWRPASIKGLTWSLAVHNLLDKSYYEQSSFESGDSIVEEAGRDVRLAVKYKF” it is “not soluble”; for “MGPKRRQLTFREKSRIIQEVEENPDLRKGEIARRFNIPPSTLSTILKNKRAILASERKYGVASTCRKTNKLSPYDKLEGLLIAWFQQIRAAGLPVKGIILKEKALRIAEELGMDDFTASNGWLDRFRRRRS” it is “soluble”.
As to “MSEEIKQEVKEEAPETTTEAKTEEAAPVAEVVAEVVTNGDKPAENGKTEEPSKYAETENYKKLIGLKMKPALADVVCEIYESGLLGPEDLDDRAVDIINSVNLDQAKFIFTEIKNSELFGVATKSLYVTSLIRSFKDRCRQQGAAAVTSGKLINGPELAALKNLLETTGYTIEVTIGQRKFGGPPPDWEGPATGPAGQGHEIYVGHIPTDVFEDTLVPLFEKSGKIWDLRLMMDPMSGASRGYAFVTYCNKEDAAAAAKTYDGHEISTGKPLKVNVSIANTRLFIGNIPKTKSKDEILEELKTHAEGVVDVIVYSVPDNEKIKNRGFCFVDFIDHKTASDIKRKIAQHKIRPFNADVYVDWAEHQEEPDEDTMSKVKVLYIRNIKEAVTEEKLNELFKEYASLDRVKKVKDYAFIHFNERDDCLKAMEEWNGKELEGTVVEASLAKPPQEKKKKPVMRGRGFGGAGGGAGNHGQRGGQRGGGQWGGNAGPGGYYPNHFNNGYDMPMPWGGGYGGDMGYGAYGGGYGGGYGGPGAYGDFGAYGGGGFRGGMRGSPRGGMGGGGGFRGGPPGRGGMANRRGRGKRPGDGRGGPASKRDNGKPDFSADVNMSTF”, the “soluble on expression in E. coli” value is “not soluble”.
With “MEQIERIAQLYPVIMRVMGRIRSLVHDGMDLTYNQYKMLLTIYDKGSCPLNLLARELGIAMSSASEMVERLVNLGIVYRAVDEDNRRQVIIYTTDRGEELIRELRHGIIENYRQLFARLPEGDQERLATAFETIADVLGKLE”, the “soluble on expression in E. coli” value is “not soluble”.
